Sequences and labels used below:
B1: CPEB3 Ribozyme (parent)
chain: GGGGGCCACAGCAGAAGCGUUCACGUCGCGGCCCCUGUCAGAUUCUGGUGAAUCUGCGAAUUCUGCUGU

Variants of B1 are the subject of the series. Briefly: self-cleavage, relative activity (ratio to wild type); higher = more cleavage; co-transcriptional.
Regarding C45U G65U, the self-cleavage is 0.813.

With C45G U46C, the self-cleavage is 0.999.

With C45G U46A, the self-cleavage worked out at 0.631.

On to C45G U46G, for which the self-cleavage is 0.966.

With U46G A52U, the self-cleavage is 0.981.

For C45G A60G, the self-cleavage is 0.897.

As to C45G A60C, the self-cleavage is 0.493.

Take C45G A60U: the self-cleavage came out at 0.407.

As to U46A C54G, the self-cleavage is 0.971.

In the case of U46A C54A, the self-cleavage was determined as 0.933.

U46G G56U: the self-cleavage was 0.959.

As to U46G G56C, the self-cleavage came to 0.65.

Turning to U44G U49G, the self-cleavage came to 0.927.

With U46A C63U, the self-cleavage worked out at 1.02.

U46G G58U: the self-cleavage is 0.955.

Consider U46G U61A, for which the self-cleavage was 0.958.

With U46G U61G, the self-cleavage is 0.878.

Regarding U46G U61C, the self-cleavage was found to be 0.941.

For the variant U44G G68C, the self-cleavage came to 1.01.

As for U44G G68U, the self-cleavage was determined as 1.03.

Consider U44G G68A, for which the self-cleavage was 0.942.

For the variant C45U G48A, the self-cleavage came to 0.992.

Take C45U G48C: the self-cleavage worked out at 0.975.

Regarding C45U G48U, the self-cleavage amounted to 1.01.

In the case of C45U A51C, the self-cleavage turned out to be 0.999.

Take C45U A51U: the self-cleavage stood at 0.947.

Take C45U C54A: the self-cleavage worked out at 0.681.

In the case of C45G U53C, the self-cleavage was determined as 0.806.

With C45G U53G, the self-cleavage stood at 0.858.

In the case of U46G U49C, the self-cleavage was determined as 1.04.

As for U46G U49A, the self-cleavage worked out at 0.972.

As to U46A G48C, the self-cleavage worked out at 1.01.

Turning to U46A G48A, the self-cleavage was found to be 1.01.

For the variant U46A G48U, the self-cleavage came to 0.991.

In the case of C45G U61G, the self-cleavage came to 0.731.

For the variant C45G U61C, the self-cleavage came out at 0.757.

On to C45G U61A, for which the self-cleavage worked out at 0.922.

For the variant C45U A52C, the self-cleavage was 0.988.

Regarding C45U A52G, the self-cleavage stood at 1.01.

For the variant C45U A52U, the self-cleavage worked out at 0.972.

Take C45G U64C: the self-cleavage was 0.836.

On to C45G U64G, for which the self-cleavage was determined as 0.739.

With C45G C66G, the self-cleavage was determined as 0.877.

As for U46A C66A, the self-cleavage stood at 0.924.

For the variant U46A C66G, the self-cleavage came out at 0.961.

In the case of U46A C66U, the self-cleavage was 0.972.

As for C45U U62A, the self-cleavage came out at 0.908.

As to C45U U55A, the self-cleavage was determined as 0.825.

For the variant C45U U55G, the self-cleavage is 0.668.

Turning to C45U U55C, the self-cleavage turned out to be 0.755.

As for U46C G56U, the self-cleavage worked out at 0.837.

On to C45G G68A, for which the self-cleavage stood at 0.942.

Turning to C45G G68C, the self-cleavage is 1.

C45U C66G: the self-cleavage was found to be 0.87.

For C45U C66A, the self-cleavage was 0.843.

Regarding C45G U55A, the self-cleavage worked out at 0.797.

For C45G U55G, the self-cleavage stood at 0.648.

Turning to C45G U55C, the self-cleavage is 0.487.

As to U46A G65U, the self-cleavage turned out to be 0.926.

C45U A59U: the self-cleavage was 0.837.

As to C45U A59G, the self-cleavage turned out to be 0.98.

C45A A51C: the self-cleavage was determined as 0.924.

As to C45A A51G, the self-cleavage turned out to be 1.02.

As for C45U U69A, the self-cleavage was found to be 1.05.

As to C45U U69C, the self-cleavage came to 1.08.

Regarding C45G G58A, the self-cleavage was 0.919.

Turning to C45G G58C, the self-cleavage came out at 0.946.

For C45G G58U, the self-cleavage was 1.01.

Regarding U44G U46G, the self-cleavage is 0.909.

Turning to U44G U46A, the self-cleavage amounted to 0.978.

For U44G U46C, the self-cleavage came out at 0.928.

For C45G C54G, the self-cleavage is 0.688.

For the variant C45G C54U, the self-cleavage is 0.952.

With U44G U62C, the self-cleavage is 0.842.

As for U46A G50A, the self-cleavage stood at 0.974.

On to U46A G50C, for which the self-cleavage was determined as 0.951.

Turning to C45G G48A, the self-cleavage amounted to 1.01.

Turning to C45G G48U, the self-cleavage turned out to be 1.02.

Turning to C45G G48C, the self-cleavage was determined as 1.01.

For C45G C57U, the self-cleavage is 0.366.

For C45G C57A, the self-cleavage turned out to be 0.318.

As to C45G C57G, the self-cleavage worked out at 0.328.

Consider C45U U49A, for which the self-cleavage amounted to 0.993.

As to U46C A52C, the self-cleavage was found to be 0.943.

On to U46C A52G, for which the self-cleavage is 1.

As for U44G G48C, the self-cleavage stood at 0.965.

Consider U46G U67A, for which the self-cleavage stood at 0.99.

As to U46G U67G, the self-cleavage was determined as 0.995.

As to U46G U62C, the self-cleavage was 0.993.

In the case of U46G U62G, the self-cleavage was 0.877.

In the case of U46G U62A, the self-cleavage stood at 0.948.

For the variant U46G U69C, the self-cleavage amounted to 1.07.

In the case of U44G G58A, the self-cleavage was 0.922.

Turning to U44G G58C, the self-cleavage turned out to be 0.944.

U44G G58U: the self-cleavage came out at 0.959.

C45G G47A: the self-cleavage is 1.03.

For U46C U55C, the self-cleavage came out at 0.701.

As for U46C U55A, the self-cleavage worked out at 0.773.

For U46C U55G, the self-cleavage is 0.768.

For C45U, the self-cleavage amounted to 0.996.

For C45A, the self-cleavage was found to be 0.984.

On to C45G, for which the self-cleavage worked out at 0.986.

Consider G47A G65C, for which the self-cleavage is 0.79.

In the case of U46C C63G, the self-cleavage is 0.796.

Turning to U46C C63A, the self-cleavage was 0.771.

For U46C C63U, the self-cleavage is 0.983.

As for U44G U67C, the self-cleavage was 0.977.

On to U44G U67A, for which the self-cleavage is 0.883.

Consider U44G U67G, for which the self-cleavage worked out at 1.01.

Turning to U46A C57G, the self-cleavage was 0.31.

On to U46A C57U, for which the self-cleavage amounted to 0.309.

For the variant C45A U49C, the self-cleavage worked out at 1.

In the case of U44G U64G, the self-cleavage amounted to 0.84.

For the variant U44G U64C, the self-cleavage was found to be 0.754.

G47A A52G: the self-cleavage came to 0.969.

Consider C45A C57G, for which the self-cleavage came to 0.252.

Regarding C45A U53A, the self-cleavage stood at 0.87.

Consider C45G C63U, for which the self-cleavage was determined as 0.964.

Take U46C C57A: the self-cleavage was determined as 0.373.

Take U44G G50U: the self-cleavage stood at 0.98.

U44G G50C: the self-cleavage is 0.949.

C45G G50C: the self-cleavage was determined as 1.01.

For C45G G50A, the self-cleavage worked out at 1.01.

Take U46C A60C: the self-cleavage turned out to be 0.339.

On to U46C A60U, for which the self-cleavage was determined as 0.472.

As to U46C G48C, the self-cleavage was determined as 1.02.

As for U46C G48A, the self-cleavage was 1.03.

U46C G48U: the self-cleavage is 1.02.

For U46A U69C, the self-cleavage was determined as 1.07.

As to U46A U69A, the self-cleavage was 0.991.

As to G47A G48A, the self-cleavage stood at 1.03.

For G47A G48C, the self-cleavage amounted to 1.03.

In the case of C45A U69C, the self-cleavage came out at 1.07.

For the variant C45A U69G, the self-cleavage was 1.06.

Regarding C45A U69A, the self-cleavage turned out to be 1.

With C45A C66G, the self-cleavage was 0.788.

U46A G58C: the self-cleavage is 0.961.

In the case of U46A G58U, the self-cleavage turned out to be 0.988.

Take U46A G58A: the self-cleavage turned out to be 0.93.

Turning to C45A G56C, the self-cleavage was 0.482.

For the variant C45A G56U, the self-cleavage came to 0.695.

Regarding U46A U62C, the self-cleavage is 0.895.

Turning to U46A U62G, the self-cleavage came out at 0.925.

As for U46G G47U, the self-cleavage was found to be 0.976.

Turning to U46G G47C, the self-cleavage amounted to 1.02.

Regarding U46G G47A, the self-cleavage was determined as 1.02.

Regarding C45G A59G, the self-cleavage amounted to 0.969.

For C45G A59U, the self-cleavage was determined as 0.815.

With C45G A59C, the self-cleavage came to 0.638.

As to U46C U67C, the self-cleavage came to 0.962.

As for U46C U67G, the self-cleavage is 0.977.

As to U46C U67A, the self-cleavage came to 0.938.

Take U44G C66U: the self-cleavage was determined as 0.986.

U46C U61A: the self-cleavage was 0.95.

As for C45U U53C, the self-cleavage is 0.834.

As to U46A U61G, the self-cleavage worked out at 0.902.

On to U46A U61C, for which the self-cleavage is 0.86.

Turning to U46A G47A, the self-cleavage turned out to be 1.01.

Turning to U46A G47U, the self-cleavage came to 0.991.

Take U46G C66U: the self-cleavage turned out to be 0.986.

Turning to U46G C66A, the self-cleavage turned out to be 0.786.

U46G C66G: the self-cleavage stood at 0.956.

For C45U U64G, the self-cleavage came to 0.854.

As to U46G G65C, the self-cleavage worked out at 0.681.

U46A G68A: the self-cleavage is 1.02.

On to U46A G68C, for which the self-cleavage was 0.97.

For G47A A59U, the self-cleavage is 0.872.

(Values after the RNAGym collection of RNA variant scans (doi:10.7554/elife.80360).)
